No end group written: not given here.
Experiments:
MMP-2/9 = details: Koivunen et al., 1999; cited from earlier work
[1] = in vivo; Kuhnast et al., 2004; Sprague et al., 2006; cited from earlier work
[2] = radiochemical stability of ^68Ga-M2 in PBS or DTPA challenge (radio-HPLC); type: physicochemical; details: room temperature, 3 h incubation
Procedure: (§1) The chemical, radiochemical and optical stability of radioactive and non-radioactive M2 were examined using a series of in vitro stability studies. M2 was incubated in PBS and water at room temperature and 4° C. for 14 days, followed by HPLC analysis of peptide and fluorescent stability. To assess radiochemical stability, ^68Ga-M2 was added to a solution of PBS or DTPA (500-fold excess), kept at room temperature for 1, 2 and 3 h, and analyzed by radio-HPLC. To evaluate serum stability, 150 μl of ^68Ga-M2 was added to 50% mouse serum and incubated at 37° C. An 80 μl aliquot was taken at each of the above-mentioned time points and added to 160 μl ice-cold acetonitrile. The samples were centrifuged at 14,000 rpm for 5 min and the supernatant was collected, filtered and analyzed by radio-HPLC.

[3] = type: physicochemical
Procedure: The lipophilicity of ^68Ga-M2 was assessed by determination of the water-octanol partition coefficient. 1-Octanol (1 mL) was added to a solution of approximately 25 μCi of ^68Ga-M2 in water (1 mL) and the layers were vigorously mixed for 5 min at room temperature. The tubes were centrifuged at 14,000 rpm for 2-3 min. Three samples of 100 μL of each layer were taken in pre-weighed vials, re-weighed, and counted in a […] (Wizard-2, Perkin Elmer). The partition coefficient was determined by calculating the ratio of counts per minute (cpm) in weight (g) of octanol/cpm in weight (g) of water and expressed as log P. At least three independent experiments were performed in triplicate to give the log P as the mean value±standard deviation (SD).

[4] = characterization of fluorescent properties; type: physicochemical
Procedure: Fluorescence intensity of the fluorophores was determined using the Fluorolog Tau-3 Spectrofluorometer (Horiba Jobin Yvon, Edison, N.J.) with excitation from a xenon arc lamp and absorbance was recorded using the DU-800 Spectrophotometer (Beckman Coulter, Brea Calif.). Fluorescence excitation and emission spectra were obtained at wavelengths of 785 and 830 nm respectively, with an integration time of 0.3 seconds for 1 μM solutions of IRDye 800CW, M2 and ^68Ga-M2 (n=4). Fluorescence measurements for IRDye 800CW and M2 were performed in aqueous solution under ambient conditions, whereas ^68Ga-M2 was prepared as previously described in NaOAc (pH 4) to provide an accurate representation of the ^68Ga-labeling scheme. Extinction coefficients were determined from the slope of absorbance at 785 nm as a function of the concentration of serial dilutions of each agent. Fluorescence quantum yield was determined by the comparative method of Williams et al. (Williams et al., 1983) using the quantum yield of ICGO (Φ=0.016) at 785/830 nm as a standard.

MMP-9 [5] = biological target: T1, MMP-9 (Mus musculus, UniProt P41245); assay: NIRF imaging of ^68Ga-M2 in murine model of BMP-2 induced HO; type: in vivo; parameters: injected intramuscularly into each hind limb quadriceps muscle of nonobese diabetic/severely compromised immunodeficient (NOD/SCID) mice; from tissue; host or cells: hind limb muscle of living NOD/SCID mice injected with AdBMP2- or Adempty-transduced human fibroblasts; details: day 4 after implantation, 18 hr after i.v. administration
Procedure: (§2) A murine model of BMP-2 induced HO was used as previously described (Rodenberg et al., 2010). […] Control transduced cells were injected into the contralateral limb.
Based on the findings from the ex vivo analysis, mice were imaged on day 4 post-implantation with NIRF imaging to assess localization and in vivo fluorescence of M2 following ^68Ga-labeling. […] NIR fluorescence images were acquired 18 hr after intravenous administration of ^68Ga-M2 using a custom-built fluorescence imaging systems previously described Houston et al., 2005). Briefly, a field of view was illuminated with 785 nm of light from a laser diode, outfitted with a convex lens and diffuser to create a uniform excitation field. The fluorescence was collected through holographic and interference filters placed before a Nikon camera lens. The images were finally captured by an electron-multiplying charge-coupled device camera (PhotonMax 512; Princeton Instruments, Princeton, N.J.) with 200 to 400 milliseconds of integration time. For acquisition of white-light images, the optical filters were removed, and a low-power lamp illuminated the subject. Image acquisition was accomplished by V++ software (Auckland, New Zealand).

in vitro = in vitro ADME; details: mouse, serum
Procedure: as §1

MMP-9 [6] = biological target: T1, MMP-9; parameters: injected intramuscularly into each hind limb quadriceps muscle of nonobese diabetic/severely compromised immunodeficient (NOD/SCID) mice; from tissue; host or cells: hind limb muscle of living NOD/SCID mice injected with AdBMP2- or Adempty-transduced human fibroblasts; details: in vivo, iv
Procedure: as §2
The anesthetized mice were injected intravenously with ^68Ga-M2 (200 μCi, 6 nmol) and μPET/CT images were acquired 1 h post-injection. To visualize the formation of ectopic bone, CT imaging was performed on days 4 and 11 post-implantation

[7] = 1 μM solutions, IRDye 800CW and M2 aqueous, ^68Ga-M2 in NaOAc pH 4

T1 sequence (P41245 108-730): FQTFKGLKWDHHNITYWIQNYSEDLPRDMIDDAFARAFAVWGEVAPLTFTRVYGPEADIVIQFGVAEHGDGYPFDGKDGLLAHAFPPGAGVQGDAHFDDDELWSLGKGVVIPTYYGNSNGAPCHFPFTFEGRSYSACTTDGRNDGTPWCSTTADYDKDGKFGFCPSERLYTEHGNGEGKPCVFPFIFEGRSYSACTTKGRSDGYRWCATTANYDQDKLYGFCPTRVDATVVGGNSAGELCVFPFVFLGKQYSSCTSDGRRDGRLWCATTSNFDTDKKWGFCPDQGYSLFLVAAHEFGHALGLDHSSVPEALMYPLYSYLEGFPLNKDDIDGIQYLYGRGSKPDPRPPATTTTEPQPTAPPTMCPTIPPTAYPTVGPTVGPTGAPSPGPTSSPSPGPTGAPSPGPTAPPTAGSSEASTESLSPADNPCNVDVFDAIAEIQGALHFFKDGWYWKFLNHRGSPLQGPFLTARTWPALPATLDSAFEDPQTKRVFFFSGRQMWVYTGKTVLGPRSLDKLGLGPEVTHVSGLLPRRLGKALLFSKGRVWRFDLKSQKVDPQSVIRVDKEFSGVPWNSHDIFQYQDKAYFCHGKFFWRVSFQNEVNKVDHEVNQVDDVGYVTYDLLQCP

Compound | inhibitory activity against MMP-2/9 (MMP-2/9) | susceptibility to non-specific degradation [1] | radiochemical purity ([2]; DTPA (500-fold excess)) | radiochemical purity ([2]; PBS) | logP [3] | Emission maximum [4, 7] | Excitation wavelength [4, 7] | Quantum yield ([4]; 785/830 nm, relative to ICG (Φ=0.016)) | Extinction coefficient ([4]; absorbance at 785 nm, serial dilutions, mean ± SD (n=4)) | absorbance maximum ([4]; optical spectrum) | localization of agent by NIR fluorescence (MMP-9 [5]) | remaining at 3 h (in vitro) | clearance from circulation (MMP-9 [6])
c(CTTHWGFTLC) (also: cyclic, c(...), ring type and places not given here) | potent inhibitory activity | highly susceptible to non-specific degradation |  |  |  |  |  |  |  |  |  |  | 
CC(C)C[C@@H]1NC(=O)[C@H]([C@@H](C)O)NC(=O)[C@H](Cc2ccccc2)NC(=O)CNC(=O)[C@H](Cc2c[nH]c3ccccc23)NC(=O)[C@H](Cc2c[nH]cn2)NC(=O)[C@H](C)NC(=O)[C@@H](NC(=O)[C@H](CCCCNC(=O)CCCCC[N+]2=C(C=CC3=C(Oc4ccc(S(=O)(=O)O)cc4)C(=CC=C4N(CCCCS(=O)(=O)O)c5ccc(S(=O)(=O)O)cc5C4(C)C)CCC3)C(C)(C)c3cc(S(=O)(=O)[O-])ccc32)NC(=O)CN2CCN(CC(=O)O)CCN(CC(=O)O)CCN(CC(=O)O)CC2)CCCCNC(=O)C[C@@H](C(=O)O)NC1=O (single isomer, unassigned) [^68Ga-M2, metal not drawn] |  |  | > 95% | > 95% | -2.09 ± 0.02 | 830 nm | 785 nm | 0.031 | 108,069±7,918 M^−1cm^−1 | 785 nm | observed in the tissue region with BMP-2 producing cells | > 95% | rapidly cleared from circulation via the kidneys
